One block for each molecule: values may come before it.
Key:
[1] = target: T1, TIM-1 antigen (Homo sapiens, UniProt Q96D42, DEL158-162/L179P); assay: Epitope binning (antigen binding competition, Luminex); conditions: Table 9
T1 construct: V5; His; made in house; host or cells: baculovirus expression system (pMelV5His vector / pBlueBac)
T1 sequence (Q96D42 with tags, fused parts or gaps DEL158-162/L179P): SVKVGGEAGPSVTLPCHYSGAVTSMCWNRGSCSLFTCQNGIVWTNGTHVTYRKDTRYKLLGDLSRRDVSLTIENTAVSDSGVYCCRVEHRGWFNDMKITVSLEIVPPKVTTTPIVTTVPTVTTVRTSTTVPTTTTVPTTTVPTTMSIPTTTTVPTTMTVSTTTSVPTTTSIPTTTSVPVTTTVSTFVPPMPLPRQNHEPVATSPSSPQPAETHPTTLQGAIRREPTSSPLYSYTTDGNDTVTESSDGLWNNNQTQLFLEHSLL
Experimental: Certain antibodies, described herein were “binned” in accordance with the protocol described in U.S. Patent Application Publication No. 20030157730, published on Aug. 21, 2003, entitled “Antibody Categorization Based on Binding Characteristics.”
MxhIgG conjugated beads were prepared for coupling to primary antibody. The volume of supernatant needed was calculated using the following formula: (n+10)×50 μL (where n=total number of samples on plate). Where the concentration was known, 0.5 μg/mL was used. Bead stock was gently vortexed, then diluted in supernatant to a concentration of 2500 of each bead per well or 0.5×10^5/mL and incubated on a shaker in the dark at room temperature overnight, or 2 hours if at a known concentration of 0.5 μg/mL. Following aspiration, 50 μL of each bead was added to each well of a filter plate, then washed once by adding 100 μL/well wash buffer and aspirating. Antigen and controls were added to the filter plate 50 μL/well then covered and allowed to incubate in the dark for 1 hour on shaker. Following a wash step, a secondary unknown antibody was added at 50 μL/well using the same dilution (or concentration if known) as used for the primary antibody. The plates were then incubated in the dark for 2 hours at room temperature on shaker followed by a wash step. Next, 50 μL/well biotinylated mxhIgG diluted 1:500 was added and allowed to incubate in the dark for 1 hour on shaker at room temperature. Following a wash step, 50 μL/well Streptavidin-PE was added at 1:1000 and allowed to incubate in the dark for 15 minutes on shaker at room temperature. Following a wash step, each well was resuspended in 80 μL blocking buffer and read using a Luminex system.

[2] = target: T1, TIM-1 antigen; assay: BiaCore affinity determination of anti-TIM-1 mAb; assay type: binding; conditions: 25° C.; mAb captured on chip; TIM-1 antigen injected at 292 nM
Experimental: BiaCore® analysis was used to determine binding affinity of anti-TIM-1 antibody to TIM-1 antigen. The analysis was performed at 25° C. using a BiaCore® 2000 biosensor equipped with a research-grade CMS sensor chip. A high-density goat […] antibody surface over a CMS BiaCore® chip was prepared using routine amine coupling. Antibody supernatants were diluted to ˜5 μg/mL in HBS-P running buffer containing 100 μg/mL BSA and 10 mg/mL carboxymethyldextran. The antibodies were then captured individually on a separate surface using a 2 minute contact time, and a 5 minute wash for stabilization of antibody baseline.
TIM-1 antigen was injected at 292 nM over each surface for 75 seconds, followed by a 3-minute dissociation. Double-referenced binding data were obtained by subtracting the signal from a control flow cell and subtracting the baseline drift of a buffer inject just prior to the TIM-1 injection. TIM-1 binding data for each mAb were normalized for the amount of mAb captured on each surface. The normalized, drift-corrected responses were also measured.

Bin [1]: 7
Kd [2]: 3.35 nM
B1: mAb 2.54: fully human IgG4 kappa anti-TIM-1 monoclonal antibody; heavy chain SEQ ID NO: 26, light chain SEQ ID NO: 28 (antibody, listed as Homo Sapiens, V domains shown)
VH: QVQLEQSGGGVVQPGRSLRLSCAASGFTFTNYGLHWVRQAPGKGLDWVAVIWYDGSHKFYADSVKGRFTISRDNSKNTLFLQMNSLRAEDTAVYYCTRDLDYWGQGTLVTVSSA
VL: ETQLTQSPGTLSLSPGERVTLSCRASQSVSNNYLAWYQQKPGQAPRLLIYGASSRATGIPDRFSGSGSGTDFTLTISRLEPEDCAECYCQQYGSSLPLTFGGGTKVEIKR

Bin [1]: 5
Kd [2]: 1.1 nM
B2: mAb 2.56: fully human IgG4 kappa anti-TIM-1 monoclonal antibody; heavy chain SEQ ID NO: 30, light chain SEQ ID NO: 32 (antibody, listed as Homo Sapiens)
heavy: QVQLVESGGGVVQPGRSLRLSCAASGFTFSSYGMHWVRQAPGKGLEWVAVIWYDGSHKYYADSVKGRFTISRDNSKNTLYLQMNSLRAEDTAVYYSARDYYDTSRHHWGFDCWGQGTLVTVSSA
light: EIVMTQTPLSLPVTPGEPASISCRSSQSLLDSEDGNTYLDWYLQKPGQSPQLLIYTLSHRASGVPDRFSGSGSGTDFTLKISRVEAEDVGVYCCMQRVEFPITFGQGTRLEIKR
